According to the supplement of paper PMC5998384:

What was measured:
HeLa Kyoto [1] = assay: solubility in G1/S (NP-40 vs SDS abundance) (log2 ratio); higher = more soluble; conditions: cell cycle stage: G1/S
HeLa Kyoto [2] = assay: melting temperature (median over replicates), in situ; higher = more thermally stable
HeLa Kyoto [3] = assay: solubility change mitosis vs G1/S (difference of NP-40 vs SDS log2 ratios) (log2 ratio difference); higher = more soluble in mitosis
HeLa Kyoto [4] = assay: thermal stability score vs G1/S (z-score of summed log2 fold changes over temperatures); higher = more thermally stable than in G1/S
[5] = cell cycle stage: early G1 (4.5 h after nocodazole release)
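For melting temperature (median over replicates), in situ in this document: HeLa Kyoto cells synchronized by double thymidine or nocodazole block, proteins quantified by TMT10plex mass spectrometry, three independent biological replicates.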
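For solubility change mitosis vs G1/S (difference of NP-40 vs SDS log2 ratios) in this document: synchronized HeLa Kyoto cells (double thymidine block for G1/S, nocodazole release for mitosis), protein amounts in NP-40 versus SDS lysates quantified by mass spectrometry, three biological replicates.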
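For solubility in G1/S (NP-40 vs SDS abundance) in this document: HeLa Kyoto cells arrested at G1/S by double thymidine block, proteins quantified by TMT10plex mass spectrometry in mild NP-40 versus SDS extracts, three biological replicates.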
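For thermal stability score vs G1/S (z-score of summed log2 fold changes over temperatures) in this document: synchronized HeLa Kyoto cells, proteins quantified by TMT10plex mass spectrometry, three biological replicates, mitosis taken 0.5 h after nocodazole release, G1/S directly after double thymidine block.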

For RAP1GAP2, the “solubility in G1/S (log2)” value (HeLa Kyoto [1]) was 0.164, the melting temperature (HeLa Kyoto [2]; cell cycle stage: G1/S) was 50.3 °C and the melting temperature (HeLa Kyoto [2]; cell cycle stage: mitosis) was 50.3 °C. The “solubility change mitosis (log2)” value (HeLa Kyoto [3]) was 0.327, the thermal stability score (HeLa Kyoto [4]; [5]) was 0.21 and the thermal stability score (HeLa Kyoto [4]; cell cycle stage: mitosis) was 0.699.
In the case of “MFSKLAHLQRFAVLSRGVHSSVASATSVATKKTVQGPPTSDDIFEREYKYGAHNYHPLPVALERGKGIYLWDVEGRKYFDFLSSYSAVNQGHCHPKIVNALKSQVDKLTLTSRAFYNNVLGEYEEYITKLFNYHKVLPMNTGVEAGETACKLARKWGYTVKGIQKYKAKIVFAAGNFWGRTLSAISSSTDPTSYDGFGPFMPGFDIIPYNDLPALERALQDPNVAAFMVEPIQGEAGVVVPDPGYLMGVRELCTRHQVLFIADEIQTGLARTGRWLAVDYENVRPDIVLLGKALSGGLYPVSAVLCDDDIMLTIKPGEHGSTYGGNPLGCRVAIAALEVLEEENLAENADKLGIILRNELMKLPSDVVTAVRGKGLLNAIVIKETKDWDAWKVCLRLRDNGLLAKPTHGDIIRFAPPLVIKEDELRESIEIINKTILSF [OAT]”, the “solubility in G1/S (log2)” value (HeLa Kyoto [1]) is reported as 0.246, the melting temperature (HeLa Kyoto [2]; cell cycle stage: G1/S) is reported as 52.8 °C and the melting temperature (HeLa Kyoto [2]; cell cycle stage: mitosis) is reported as 53 °C. For the same substance, the “solubility change mitosis (log2)” value (HeLa Kyoto [3]) was -0.168, the thermal stability score (HeLa Kyoto [4]; [5]) was 0.897 and the thermal stability score (HeLa Kyoto [4]; cell cycle stage: mitosis) was -0.508.
In the case of “MNNSGADEIGKLFVGGLDWSTTQETLRSYFSQYGEVVDCVIMKDKTTNQSRGFGFVKFKDPNCVGTVLASRPHTLDGRNIDPKPCTPRGMQPERTRPKEGWQKGPRSDNSKSNKIFVGGIPHNCGETELREYFKKFGVVTEVVMIYDAEKQRPRGFGFITFEDEQSVDQAVNMHFHDIMGKKVEVKRAEPRDSKSQAPGQPGASQWGSRVVPNAANGWAGQPPPTWQQGYGPQGMWVPAGQAIGGYGPPPAGRGAPPPPPPFTSYIVSTPPGGFPPPQGFPQGYGAPPQFSFGYGPPPPPPDQFAPPGVPPPPATPGAAPLAFPPPPSQAAPDMSKPPTAQPDFPYGQYAGYGQDLSGFGQGFSDPSQQPPSYGGPSVPGSGGPPAGGSGFGRGQNHNVQGFHPYRR [DAZAP1]”, the “solubility in G1/S (log2)” value (HeLa Kyoto [1]) is reported as 0.412, the melting temperature (HeLa Kyoto [2]; cell cycle stage: G1/S) is reported as 53.6 °C and the melting temperature (HeLa Kyoto [2]; cell cycle stage: mitosis) is reported as 53.7 °C. The “solubility change mitosis (log2)” value (HeLa Kyoto [3]) was -0.0921, the thermal stability score (HeLa Kyoto [4]; [5]) was -1.35 and the thermal stability score (HeLa Kyoto [4]; cell cycle stage: mitosis) was -1.24.
For “MRERIWAPPLLLLLPLLLPPPLWGGPPDSPRRELELEPGPLQPFDLLYASGAAAYYSGDYERAVRDLEAALRSHRRLREIRTRCARHCAARHPLPPPPPGEGPGAELPLFRSLLGRARCYRSCETQRLGGPASRHRVSEDVRSDFQRRVPYNYLQRAYIKLNQLEKAVEAAHTFFVANPEHMEMQQNIENYRATAGVEALQLVDREAKPHMESYNAGVKHYEADDFEMAIRHFEQALREYFVEDTECRTLCEGPQRFEEYEYLGYKAGLYEAIADHYMQVLVCQHECVRELATRPGRLSPIENFLPLHYDYLQFAYYRVGEYVKALECAKAYLLCHPDDEDVLDNVDYYESLLDDSIDPASIEAREDLTMFVKRHKLESELIKSAAEGLGFSYTEPNYWIRYGGRQDENRVPSGVNVEGAEVHGFSMGKKLSPKIDRDLREGGPLLYENITFVYNSEQLNGTQRVLLDNVLSEEQCRELHSVASGIMLVGDGYRGKTSPHTPNEKFEGATVLKALKSGYEGRVPLKSARLFYDISEKARRIVESYFMLNSTLYFSYTHMVCRTALSGQQDRRNDLSHPIHADNCLLDPEANECWKEPPAYTFRDYSALLYMNDDFEGGEFIFTEMDAKTVTASIKPKCGRMISFSSGGENPHGVKAVTKGKRCAVALWFTLDPLYRELERIQADEVIAILDQEQQGKHELNINPKDEL [P3H2]”, the “solubility in G1/S (log2)” value (HeLa Kyoto [1]) was -0.176, the melting temperature (HeLa Kyoto [2]; cell cycle stage: G1/S) was 53.7 °C and the melting temperature (HeLa Kyoto [2]; cell cycle stage: mitosis) was 53.9 °C. The “solubility change mitosis (log2)” value (HeLa Kyoto [3]) was -0.0732, the thermal stability score (HeLa Kyoto [4]; [5]) was 4.77 and the thermal stability score (HeLa Kyoto [4]; cell cycle stage: mitosis) was 5.82.
“MAEAAAAAGGTGLGAGASYGSAADRDRDPDPDRAGRRLRVLSGHLLGRPREALSTNECKARRAASAATAAPTATPAAQESGTIPKKRQEVMKWNGWGYNDSKFIFNKKGQIELTGKRYPLSGMGLPTFKEWIQNTLGVNVEHKTTSKASLNPSDTPPSVVNEDFLHDLKETNISYSQEADDRVFRAHGHCLHEIFLLREGMFERIPDIVLWPTCHDDVVKIVNLACKYNLCIIPIGGGTSVSYGLMCPADETRTIISLDTSQMNRILWVDENNLTAHVEAGITGQELERQLKESGYCTGHEPDSLEFSTVGGWVSTRASGMKKNIYGNIEDLVVHIKMVTPRGIIEKSCQGPRMSTGPDIHHFIMGSEGTLGVITEATIKIRPVPEYQKYGSVAFPNFEQGVACLREIAKQRCAPASIRLMDNKQFQFGHALKPQVSSIFTSFLDGLKKFYITKFKGFDPNQLSVATLLFEGDREKVLQHEKQVYDIAAKFGGLAAGEDNGQRGYLLTYVIAYIRDLALEYYVLGESFETSAPWDRVVDLCRNVKERITRECKEKGVQFAPFSTCRVTQTYDAGACIYFYFAFNYRGISDPLTVFEQTEAAAREEILANGGSLSHHHGVGKLRKQWLKESISDVGFGMLKSVKEYVDPNNIFGNRNLL [AGPS]” was tested, and the “solubility in G1/S (log2)” value (HeLa Kyoto [1]) was -0.0393, the melting temperature (HeLa Kyoto [2]; cell cycle stage: G1/S) was 52.8 °C and the melting temperature (HeLa Kyoto [2]; cell cycle stage: mitosis) was 52.9 °C. For the same substance, the “solubility change mitosis (log2)” value (HeLa Kyoto [3]) was -0.139, the thermal stability score (HeLa Kyoto [4]; [5]) was 0.703 and the thermal stability score (HeLa Kyoto [4]; cell cycle stage: mitosis) was 1.37.
